Results published in US20250258165A1 (OSAKA UNIVERSITY, published 2025).

Biological target: T1, p300 (mouse, UniProt B2RWS6 2-2412)
T1 construct: whole, on cells; Endogenous protein inside fixed, permeabilised LPS-stimulated mouse spleen B cells; It was detected through a DNA barcode-labeled antibody (clone RW128)
Assay: joining PCR of DNA barcode-labeled antibodies in hydrogel with NGS; LPS-stimulated mouse spleen B cells
Description: B cells collected from mouse spleen were suspended in serum-free medium. The cells were seeded on each well of fluororesin-coated glass slides (super hydrophobic printed glass slides, 10 wells, 6 mm diameter, Matsunami Glass Ind., Ltd., Cat. No. TF1006, see FIG. 6) with an adjusted density of 5000 cells/30 μL per circle. The cells were cultured in 5% CO₂ at 37° C. for 30 minutes, and the culture supernatant was removed. […] The cells were cultured in 5% CO₂ at 37° C. for 24 hours. IL-4 was used as stimulation for B-cell activation.
The joining PCR of the antibody barcodes that come in close proximity was performed using Mastercycler nexus flat (trade-name) (Eppendorf) PCR cycler. […] The PCR reaction was performed through a program consisting of six steps: step 1: 95° C., 2 minutes; step 2: (95° C., 30 seconds and 68° C., 1 minute)×10 cycles; step 3: (95° C., 30 seconds, 55° C., 30 seconds and 68° C., 1 minute)×2 cycles; step 4: (95° C., 30 seconds, 60° C., 30 seconds and 68° C., 1 minute)×16 cycles; step 5: 68° C., 1 minute; and step 6: 4° C., infinity. The samples after completion of the PCR reaction were stored at −20° C.

T1 sequence (B2RWS6 2-2412): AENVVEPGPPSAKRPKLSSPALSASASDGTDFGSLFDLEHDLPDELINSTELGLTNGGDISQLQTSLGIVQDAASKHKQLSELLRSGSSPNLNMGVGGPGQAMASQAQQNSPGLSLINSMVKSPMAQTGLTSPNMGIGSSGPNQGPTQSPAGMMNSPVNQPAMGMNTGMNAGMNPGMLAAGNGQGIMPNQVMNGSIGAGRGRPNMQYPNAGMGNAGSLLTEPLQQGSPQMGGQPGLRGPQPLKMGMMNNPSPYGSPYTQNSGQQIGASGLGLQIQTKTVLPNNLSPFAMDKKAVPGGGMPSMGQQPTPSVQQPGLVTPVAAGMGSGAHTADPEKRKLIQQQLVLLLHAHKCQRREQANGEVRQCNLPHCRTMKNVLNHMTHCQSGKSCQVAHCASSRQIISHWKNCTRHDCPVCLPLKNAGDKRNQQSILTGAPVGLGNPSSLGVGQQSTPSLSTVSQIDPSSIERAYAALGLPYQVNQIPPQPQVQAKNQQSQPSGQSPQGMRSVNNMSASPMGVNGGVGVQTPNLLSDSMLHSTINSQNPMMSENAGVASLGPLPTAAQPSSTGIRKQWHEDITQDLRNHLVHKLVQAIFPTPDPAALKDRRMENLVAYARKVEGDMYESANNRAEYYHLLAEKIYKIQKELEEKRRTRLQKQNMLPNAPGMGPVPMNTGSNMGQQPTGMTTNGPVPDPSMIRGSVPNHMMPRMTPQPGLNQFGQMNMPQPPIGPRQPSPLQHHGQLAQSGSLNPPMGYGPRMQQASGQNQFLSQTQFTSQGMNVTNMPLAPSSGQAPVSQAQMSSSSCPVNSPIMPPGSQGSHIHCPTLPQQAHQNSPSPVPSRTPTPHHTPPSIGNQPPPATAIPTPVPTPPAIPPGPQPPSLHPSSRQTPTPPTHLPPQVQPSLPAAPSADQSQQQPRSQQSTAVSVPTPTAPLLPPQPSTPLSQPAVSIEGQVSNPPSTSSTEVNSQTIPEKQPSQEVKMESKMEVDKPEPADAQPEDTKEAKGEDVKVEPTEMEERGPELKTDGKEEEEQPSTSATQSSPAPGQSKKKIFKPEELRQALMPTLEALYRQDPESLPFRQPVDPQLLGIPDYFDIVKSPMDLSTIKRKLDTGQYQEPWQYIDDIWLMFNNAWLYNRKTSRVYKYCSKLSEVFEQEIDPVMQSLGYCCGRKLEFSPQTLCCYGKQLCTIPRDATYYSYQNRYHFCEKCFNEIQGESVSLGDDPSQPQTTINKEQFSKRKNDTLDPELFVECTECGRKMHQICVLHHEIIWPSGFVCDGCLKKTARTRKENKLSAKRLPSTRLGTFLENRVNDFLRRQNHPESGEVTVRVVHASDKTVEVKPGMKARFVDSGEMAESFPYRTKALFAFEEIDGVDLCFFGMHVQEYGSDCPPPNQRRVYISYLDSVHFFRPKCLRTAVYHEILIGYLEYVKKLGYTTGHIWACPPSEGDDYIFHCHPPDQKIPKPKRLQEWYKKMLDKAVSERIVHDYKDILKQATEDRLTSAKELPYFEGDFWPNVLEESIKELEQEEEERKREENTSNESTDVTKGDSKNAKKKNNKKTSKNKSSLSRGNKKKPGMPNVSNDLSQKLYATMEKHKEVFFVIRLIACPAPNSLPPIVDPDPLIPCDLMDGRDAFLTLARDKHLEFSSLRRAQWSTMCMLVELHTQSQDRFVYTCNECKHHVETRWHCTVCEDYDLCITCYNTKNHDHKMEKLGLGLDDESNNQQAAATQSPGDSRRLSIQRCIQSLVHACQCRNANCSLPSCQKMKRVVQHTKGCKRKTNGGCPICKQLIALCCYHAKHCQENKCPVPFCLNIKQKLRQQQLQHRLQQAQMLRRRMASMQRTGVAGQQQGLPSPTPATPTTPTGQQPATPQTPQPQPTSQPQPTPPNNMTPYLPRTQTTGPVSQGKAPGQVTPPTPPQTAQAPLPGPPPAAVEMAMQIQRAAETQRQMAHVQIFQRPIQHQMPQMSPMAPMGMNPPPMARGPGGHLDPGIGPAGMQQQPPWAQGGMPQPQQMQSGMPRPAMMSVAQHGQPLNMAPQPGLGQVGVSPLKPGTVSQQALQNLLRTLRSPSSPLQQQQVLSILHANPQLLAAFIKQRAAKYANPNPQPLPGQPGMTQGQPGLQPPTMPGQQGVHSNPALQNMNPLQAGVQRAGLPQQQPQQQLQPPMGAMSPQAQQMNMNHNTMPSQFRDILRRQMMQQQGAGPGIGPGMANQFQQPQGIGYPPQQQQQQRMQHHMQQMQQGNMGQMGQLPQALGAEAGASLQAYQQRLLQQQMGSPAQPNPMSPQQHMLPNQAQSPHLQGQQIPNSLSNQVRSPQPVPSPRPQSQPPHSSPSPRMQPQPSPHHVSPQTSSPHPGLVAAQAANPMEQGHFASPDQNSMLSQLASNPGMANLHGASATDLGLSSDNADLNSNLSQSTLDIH

B1: Lamin B1 (other, mouse, UniProt P14733 2-585, looked up)
chain: ATATPVQQQRAGSRASAPATPLSPTRLSRLQEKEELRELNDRLAVYIDKVRSLETENSALQLQVTEREEVRGRELTGLKALYETELADARRALDDTARERAKLQIELGKFKAEHDQLLLNYAKKESDLSGAQIKLREYEAALNSKDAALATALGDKKSLEGDLEDLKDQIAQLEASLSAAKKQLADETLLKVDLENRCQSLTEDLEFRKNMYEEEINETRRKHETRLVEVDSGRQIEYEYKLAQALHEMREQHDAQVRLYKEELEQTYHAKLENARLSSEMNTSTVNSAREELMESRMRIESLSSQLSNLQKESRACLERIQELEDMLAKERDNSRRMLSDREREMAEIRDQMQQQLSDYEQLLDVKLALDMEISAYRKLLEGEEERLKLSPSPSSRVTVSRASSSRSVRTTRGKRKRVDVEESEASSSVSISHSASATGNVCIEEIDVDGKFIRLKNTSEQDQPMGGWEMIRKIGDTSVSYKYTSRYVLKAGQTVTVWAANAGVTASPPTDLIWKNQNSWGTGEDVKVILKNSQGEEVAQRSTVFKTTIPEEEEEEEEEPIGVAVEEERFHQQGAPRASNKSC
notes: whole, on cells; Endogenous protein inside fixed, permeabilised LPS-stimulated mouse spleen B cells; It was detected through a DNA barcode-labeled antibody (clone L-5)
Q: Does B1 bind?
A: Result: binds
